B1: AF003657 (other)
heavy: APASSSTKKTQLQLEHLLLDLQMILNGINNYKNPKLTRMLTAKFAMPKKATELKHLQCLEEELKPLEEVLNGAQSKNFHLRPRDLISNINVIVLELKGSETTFMCEYADETATIVEFLNRWITFAQSIISTLTGGGGSGGGGSGGGGSGGGGSQVQLVQSGAEVKKPGASVKVSCKASGDTFTRYYVHWVRQAPGQGLEWMGIINPSGGYASYAQKFQGRVTMTRDTSTSTVYMELSSLRSEDTAVYYCAAGLFIWGQGTLVTVSSAKTTAPSVYPLAPVCGDTTGSSVTLGCLVKGYFPEPVTLTWNSGSLSSGVHTFPAVLQSDLYTLSSSVTVTSSTWPSQSITCNVAHPASSTKVDKKIEPRGPTIKPCPPCKCPAPNAAGGPSVFIFPPKIKDVLMISLSPIVTCVVVDVSEDDPDVQISWFVNNVEVHTAQTQTHREDYNSTLRVVSALPIQHQDWMSGKEFKCKVNNKDLGAPIERTISKPKGSVRAPQVYVLPPPEEEMTKKQVTLTCMVTDFMPEDIYVEWTNNGKTELNYKNTEPVLDSDGSYFMYSKLRVEKKNWVERNSYSCSVVHEGLHNHHTTKSFSRTPGK
light: DIQMTQSPSSLSASVGDRVTITCRASQSIGRWLAWYQQKPGKAPKLLIYSASNLETGVPSRFSGSGSGTDFTLTISSLQPEDFATYYCQQYESFPVTFGPGTKVDIKRADAAPTVSIFPPSSEQLTSGGASVVCFLNNFYPKDINVKWKIDGSERQNGVLNSWTDQDSKDSTYSMSSTLTLTKDEYERHNSYTCEATHKTSTSPIVKSFNRNEC
notes: also called AF3657
B2: AF003947 (other)
heavy 1: APASSSTKKTQLQLEHLLLDLQMILNGINNYKNPKLTRMLTAKFAMPKKATELKHLQCLEEELKPLEEVLNGAQSKNFHLRPRDLISNINVIVLELKGSETTFMCEYADETATIVEFLNRWITFAQSIISTLTGGGGSGGGGSGGGGSGGGGSQVQLVQSGAEVKKPGASVKVSCKASGDTFTRYYVHWVRQAPGQGLEWMGIINPSGGYASYAQKFQGRVTMTRDTSTSTVYMELSSLRSEDTAVYYCAAGLFIWGQGTLVTVSSAKTTAPSVYPLAPVCGDTTGSSVTLGCLVKGYFPEPVTLTWNSGSLSSGVHTFPAVLQSDLYTLSSSVTVTSSTWPSQSITCNVAHPASSTKVDKKIEPRGPTIKPCPPCKCPAPNAAGGPSVFIFPPKIKDVLMISLSPIVTCVVVDVSEDDPDVQISWFVNNVEVHTAQTQTHREDYNSTLRVVSALPIQHQDWMSGKEFKCKVNNKDLGAPIERTISKPKGSVRAPQVYVLPPPEEEMTKKQVTLTCMVTDFMPEDIYVEWTNNGKTELNYKNTEPVLDSDGSYFMYSDLRVEKKNWVERNSYSCSVVHEGLHNHHTTESFSRTPGK
heavy 2: QVQLVQSGAEVKKPGASVKVSCKASGDTFTRYYVHWVRQAPGQGLEWMGIINPSGGYASYAQKFQGRVTMTRDTSTSTVYMELSSLRSEDTAVYYCAAGLFIWGQGTLVTVSSAKTTAPSVYPLAPVCGDTTGSSVTLGCLVKGYFPEPVTLTWNSGSLSSGVHTFPAVLQSDLYTLSSSVTVTSSTWPSQSITCNVAHPASSTKVDKKIEPRGPTIKPCPPCKCPAPNAAGGPSVFIFPPKIKDVLMISLSPIVTCVVVDVSEDDPDVQISWFVNNVEVHTAQTQTHREDYNSTLRVVSALPIQHQDWMSGKEFKCKVNNKDLGAPIERTISKPKGSVRAPQVYVLPPPEKEMTKKQVSLTCLVKDFMPEDIYVEWTNNGKTELNYKNTEPVLKSDGSYFMYSKLTVEKKNWVERNSYSCSVVHEGLHNHHTTKSFSRTPGGGGSGGGSHHHHHH
light: DIQMTQSPSSLSASVGDRVTITCRASQSIGRWLAWYQQKPGKAPKLLIYSASNLETGVPSRFSGSGSGTDFTLTISSLQPEDFATYYCQQYERFPVTFGPGTKVDIKRADAAPTVSIFPPSSEQLTSGGASVVCFLNNFYPKDINVKWKIDGSERQNGVLNSWTDQDSKDSTYSMSSTLTLTKDEYERHNSYTCEATHKTSTSPIVKSFNRNEC
notes: also called AF3947
B3: AF003934 (other)
heavy: APASSSTKKTQLQLEHLLLDLQMILNGINNYKNPKLTRMLTAKFAMPKKATELKHLQCLEEELKPLEEVLNGAQSKNFHLRPRDLISNINVIVLELKGSETTFMCEYADETATIVEFLNRWITFAQSIISTLTGGGGSGGGGSGGGGSGGGGSQVQLVQSGAEVKKPGASVKVSCKASGYTFTRYYMHWVRQAPGQGLEWMGIINPRAGYTSYALKFQGRVTMTRDTSTSTVYMELSSLRSEDTAVYYCTSGWDVWGQGTLVTVSSAKTTAPSVYPLAPVCGDTTGSSVTLGCLVKGYFPEPVTLTWNSGSLSSGVHTFPAVLQSDLYTLSSSVTVTSSTWPSQSITCNVAHPASSTKVDKKIEPRGPTIKPCPPCKCPAPNAAGGPSVFIFPPKIKDVLMISLSPIVTCVVVDVSEDDPDVQISWFVNNVEVHTAQTQTHREDYNSTLRVVSALPIQHQDWMSGKEFKCKVNNKDLGAPIERTISKPKGSVRAPQVYVLPPPEEEMTKKQVTLTCMVTDFMPEDIYVEWTNNGKTELNYKNTEPVLDSDGSYFMYSKLRVEKKNWVERNSYSCSVVHEGLHNHHTTKSFSRTPGK
light: DIQMTQSPSSLSASVGDRVTITCRASQSISTWLAWYQQKPGKAPKLLIYAASSLDSGVPSRFSGSGSGTDFTLTISSLQPEDFATYYCQQSYSFPVTFGQGTKVEIKRADAAPTVSIFPPSSEQLTSGGASVVCFLNNFYPKDINVKWKIDGSERQNGVLNSWTDQDSKDSTYSMSSTLTLTKDEYERHNSYTCEATHKTSTSPIVKSFNRNEC
notes: also called AF3934
B4: AF003644 (other)
heavy: APASSSTKKTQLQLEHLLLDLQMILNGINNYKNPKLTRMLTAKFAMPKKATELKHLQCLEEELKPLEEVLNGAQSKNFHLRPRDLISNINVIVLELKGSETTFMCEYADETATIVEFLNRWITFAQSIISTLTGGGGSGGGGSGGGGSGGGGSQVQLVQSGAEVKKPGASVKVSCKASGDTFTRYYVHWVRQAPGQGLEWMGIINPSGGYASYAQKFQGRVTMTRDTSTSTVYMELSSLRSEDTAVYYCAAGLFIWGQGTLVTVSSAKTTAPSVYPLAPVCGDTTGSSVTLGCLVKGYFPEPVTLTWNSGSLSSGVHTFPAVLQSDLYTLSSSVTVTSSTWPSQSITCNVAHPASSTKVDKKIEPRGPTIKPCPPCKCPAPNAAGGPSVFIFPPKIKDVLMISLSPIVTCVVVDVSEDDPDVQISWFVNNVEVHTAQTQTHREDYNSTLRVVSALPIQHQDWMSGKEFKCKVNNKDLGAPIERTISKPKGSVRAPQVYVLPPPEEEMTKKQVTLTCMVTDFMPEDIYVEWTNNGKTELNYKNTEPVLDSDGSYFMYSKLRVEKKNWVERNSYSCSVVHEGLHNHHTTKSFSRTPGK
light: DIQMTQSPSSLSASVGDRVTITCRASQSIGRWLAWYQQKPGKAPKLLIYSASNLETGVPSRFSGSGSGTDFTLTISSLQPEDFATYYCQQYNSFPVTFGPGTKVDIKRADAAPTVSIFPPSSEQLTSGGASVVCFLNNFYPKDINVKWKIDGSERQNGVLNSWTDQDSKDSTYSMSSTLTLTKDEYERHNSYTCEATHKTSTSPIVKSFNRNEC
notes: also called AF3644
B5: AF003651 (other)
heavy: APASSSTKKTQLQLEHLLLDLQMILNGINNYKNPKLTRMLTAKFAMPKKATELKHLQCLEEELKPLEEVLNGAQSKNFHLRPRDLISNINVIVLELKGSETTFMCEYADETATIVEFLNRWITFAQSIISTLTGGGGSGGGGSGGGGSGGGGSQVQLVQSGAEVKKPGASVKVSCKASGDTFTRYYVHWVRQAPGQGLEWMGIINPSGGYASYAQKFQGRVTMTRDTSTSTVYMELSSLRSEDTAVYYCAAGLFIWGQGTLVTVSSAKTTAPSVYPLAPVCGDTTGSSVTLGCLVKGYFPEPVTLTWNSGSLSSGVHTFPAVLQSDLYTLSSSVTVTSSTWPSQSITCNVAHPASSTKVDKKIEPRGPTIKPCPPCKCPAPNAAGGPSVFIFPPKIKDVLMISLSPIVTCVVVDVSEDDPDVQISWFVNNVEVHTAQTQTHREDYNSTLRVVSALPIQHQDWMSGKEFKCKVNNKDLGAPIERTISKPKGSVRAPQVYVLPPPEEEMTKKQVTLTCMVTDFMPEDIYVEWTNNGKTELNYKNTEPVLDSDGSYFMYSKLRVEKKNWVERNSYSCSVVHEGLHNHHTTKSFSRTPGK
light: DIQMTQSPSSLSASVGDRVTITCRASQSIGRYLAWYQQKPGKAPKLLIYSASNLETGVPSRFSGSGSGTDFTLTISSLQPEDFATYYCQQYNSFPVTFGPGTKVDIKRADAAPTVSIFPPSSEQLTSGGASVVCFLNNFYPKDINVKWKIDGSERQNGVLNSWTDQDSKDSTYSMSSTLTLTKDEYERHNSYTCEATHKTSTSPIVKSFNRNEC
notes: also called AF3651
B6: AF003247 (other)
heavy: APASSSTKKTQLQLEHLLLDLQMILNGINNYKNPKLTRMLTAKFAMPKKATELKHLQCLEEELKPLEEVLNGAQSKNFHLRPRDLISNINVIVLELKGSETTFMCEYADETATIVEFLNRWITFAQSIISTLTGGGGSGGGGSGGGGSGGGGSQVQLVQSGAEVKKPGASVKVSCKASGDTFTRHYVHWVRQAPGQGLEWMGIINPSGGYASYAQKFQGRVTMTRDTSTSTVYMELSSLRSEDTAVYYCAAGLFIWGQGTLVTVSSAKTTAPSVYPLAPVCGDTTGSSVTLGCLVKGYFPEPVTLTWNSGSLSSGVHTFPAVLQSDLYTLSSSVTVTSSTWPSQSITCNVAHPASSTKVDKKIEPRGPTIKPCPPCKCPAPNAAGGPSVFIFPPKIKDVLMISLSPIVTCVVVDVSEDDPDVQISWFVNNVEVHTAQTQTHREDYNSTLRVVSALPIQHQDWMSGKEFKCKVNNKDLGAPIERTISKPKGSVRAPQVYVLPPPEEEMTKKQVTLTCMVTDFMPEDIYVEWTNNGKTELNYKNTEPVLDSDGSYFMYSKLRVEKKNWVERNSYSCSVVHEGLHNHHTTKSFSRTPGK
light: DIQMTQSPSSLSASVGDRVTITCRASQSIGRWLAWYQQKPGKAPKLLIYSASNLETGVPSRFSGSGSGTDFTLTISSLQPEDFATYYCQQYESFPVTFGPGTKVDIKRADAAPTVSIFPPSSEQLTSGGASVVCFLNNFYPKDINVKWKIDGSERQNGVLNSWTDQDSKDSTYSMSSTLTLTKDEYERHNSYTCEATHKTSTSPIVKSFNRNEC
notes: also called AF3247

biological target: T1, biotinylated IL-2 receptor beta gamma heterodimer Fc (IL-2RBG; Acro ILG-H5254) (UniProt P14784 27-239; P31785 23-262, biotinylated); experiment: ELISA, captured complex, biotin-IL-2RBG 10 nM, PD-1 Fc titrated
T1 construct: bought heterodimer
T1 sequence (looked up) 1: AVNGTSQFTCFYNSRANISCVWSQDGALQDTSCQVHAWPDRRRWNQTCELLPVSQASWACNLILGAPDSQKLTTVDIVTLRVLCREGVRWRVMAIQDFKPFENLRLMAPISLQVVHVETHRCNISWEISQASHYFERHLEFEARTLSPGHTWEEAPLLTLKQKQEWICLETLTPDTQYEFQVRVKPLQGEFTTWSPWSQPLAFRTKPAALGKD
T1 sequence (looked up) 2: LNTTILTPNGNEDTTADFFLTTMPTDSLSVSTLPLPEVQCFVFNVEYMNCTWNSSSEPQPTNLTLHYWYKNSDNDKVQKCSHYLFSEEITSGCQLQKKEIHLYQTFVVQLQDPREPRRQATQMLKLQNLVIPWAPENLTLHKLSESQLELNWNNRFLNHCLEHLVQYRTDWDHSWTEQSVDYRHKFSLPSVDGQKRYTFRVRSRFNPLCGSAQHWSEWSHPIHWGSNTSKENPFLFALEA
Protocol: The DBA-cytokine complexes and control antibody-cytokine complexes were produced in two formats: (1) “Symmetric” immunocytokine (shown in FIG. 2E); or (2) “Asymmetric” immunocytokine (shown in FIG. 2B) by expression in mammalian cells and purified using standard protocols. […] To perform the assay, 384-well ELISA plates were coated with anti-Fc antibody at 1 micrograms/ml in 100 mM bicarbonate solution pH 9.0 overnight at 4° C. and washed twice with SUPERBLOCK™. Antibody-cytokine complexes were then added to each well at a constant concentration of 6 nM and allowed to incubate for 1 hour and washed three times in PBS plus 0.05% TWEEN® 20 (PBST). Titrated concentrations of PD-1 Fc or an IgG1 control Fc were added and allowed to incubate for 15 minutes before the addition of a constant amount of biotinylated IL-2RBG at 10 nM. The plates were incubated for an additional 30 minutes, washed and biotinylated IL-2RBG detection was performed using streptavidin-HRP and standard ELISA protocols.

Binding result, binds:
B1, B2, B3, B4, B5, B6

From patent publication US20240366776A1 (Hoffmann-La Roche, published 2024)
